Data published in patent publication US20230094463A1 (TRUEBINDING, published 2023).
Positions count from the first letter of the chain named.

T1: Gal3 Peptide 7 (AYPGAPGAYPGAPAPGVYPG) (human)
T1 peptide: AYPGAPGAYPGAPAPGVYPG

T2: Gal3 Peptide 1 (ADNFSLHDALSGSGNPNPQG) (human)
T2 peptide: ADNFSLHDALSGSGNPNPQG

T3: Gal3 Peptide 6 (GAYPGQAPPGAYPGAPGAYP) (human)
T3 peptide: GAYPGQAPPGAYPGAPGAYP

B1: 19B5.2E6 (antibody, V domains shown)
VH: QIQLVQSGPELKKPGETVKISCKASGYTFTTYAMSWVKQAPGKGLKWMGWINTYSGVPTYADDLKGRFAFSLETSASTAYLQINNLKNEDTATYFCARGPYAMDYWGQGTSVTVSS
VL: DIQMTQTTSSLSASLGDRVTISCSASQGINNYLNWYQQKPDGTVKLLIYYASSLHSGVPSRFSGSGSGTDYSLTISNLEPEDIATYYCQQYSQVPYTFGSGTKLEIK
B2: 20H5.A3 (antibody, V domains shown)
VH: B1 VH with T17S, T28A, A33G, K38Q, I51V, Y60C, L64F, K87R
VL: B1 VL with S22N, G28D, N30S, A51T, H55L, Y87F, Q93K, V94L, K103H
B3: 23H9.2E4 (antibody, V domains shown)
VH: B1 VH
VL: B1 VL
B4: 6H6.2D6 (antibody, V domains shown)
VH: B1 VH with A33G, G49A, L64F, K87T
VL: B1 VL with N30S, A51T, Q93E, V94L
B5: IMT006 (TB006) (antibody, V domains shown)
VH: QVQLVQSGAEVKKPGASVKVSCKASGYSFTNYYMHWVRQAPGQRLEWMGWIYPGSGNTNYNEKFQGRVTITADTSASTAYMELSSLRSEDTAVYYCSTAPGGFDVWGQGTTVTVSS
VL: DIVMTQTPLSLSVTPGQPASISCKSSKSLLHSDGITYLYWYLQKPGQSPQLLIYRMSNLASGVPDRFSGSGSGTDFTLKISRVEAEDVGVYYCAQMLEFPLTFGQGTKLEIK
notes: anti-Gal3 antibody
B6: IMT001 (TB001) (antibody, V domains shown)
VH: QVQLVQSGSELKKPGASVKVSCKASGYTFTNYGMNWVRQAPGQGLKWMGWINTNTGEPTYVEEFTGRFVFSLETSVSTAYLQISSLKAEDTAVYFCAPYDNFFAYWGQGTTVTVSS
VL: DIVLTQSPLSLPVTPGEPASISCRSSKSLLYKDGKTYLNWFLQKPGQSPQLLIYLMSTHASGVPDRFSGSGSGTDFTLKISRVEAEDVGVYYCQQLVDYPLTFGGGTKLEIK
notes: anti-Gal3 antibody; also called IMT001-4
B7: 20D11.2C6 (antibody, V domains shown)
VH: EVQLQQSGPELVKPGASVKISCKASGYTFTDFYINWVKQSHGKSLEWIGDINPKNGGINYNPKFKIKATLTVDKSSSTSYMDLRGLTSEDSAVYYCTSGYGFPYWGQGTLVTVSA
VL: DIQMNQSPSSLSASLGDTITITCRASQNIYIWLSWYQQKPGNIPKLLIYKASNLHTGVPSRFSGSGSGTDFTLTISTLQPEDIATYFCLQGQSYPLTFGAGTKLEMK
B8: 15G7.2A7 (antibody, V domains shown)
VH: B7 VH with F32Y, I34M, K54N, I58T, P62Q, I66G, S79A, D82E, G85S
VL: B7 VL with T20S, Y30N, K45Q, T77S, F87Y, E105V
B9: 13G4.2F8 (antibody, V domains shown)
VH: QVQLQQPGAELVKPGASVKLSCKASGYTFTSYWMHWVKQRPGQGLEWIGMIHPNSGSTDYNEKFKNKATLNVDKSSSTAYIQLSSLTSEDSAVYYCTRWGIYYYARDYWGQGTTLTVSS
VL: DIVMTQSQKFMSTSVGERVSITCKASQNVGTNVAWYQQKAGQSLELLIYGASNRHTGVPDRFTGSGSGTDFTLTITNVQSEDMTNYFCEQYSNFPLTFGAGTKLELK

Experiments:
[1] = target: T4, Human GAL3 protein (TrueBinding, QCB200349 / QCB200352; R&D Systems, 8259-GA) (human, UniProt P17931 2-250); assay: blocking ELISA (GAL3 coated; antibody + biotinylated ITGa3)
T4 construct: also called human galectin-3

[2] = target: T1, Gal3 Peptide 7 (AYPGAPGAYPGAPAPGVYPG); assay: peptide ELISA (peptide coated; antibody hIgG4 [S228P], 5 µg/mL)
[3] = target: T2, Gal3 Peptide 1 (ADNFSLHDALSGSGNPNPQG); assay: as above
[4] = target: T4, Human GAL3 protein (TrueBinding, …); assay: blocking ELISA (GAL3 coated; antibody + biotinylated ITGaV)
[5] = target: T5, Human Galectin-3 protein (Acro Biosystems, GA3-H5129) (human, UniProt P17931 2-250); assay: ELISA, blocking of INSR binding to coated Gal3
T5 construct: Bought protein; also called Gal3-ECD-His; Gal3-His; not shown: linker-spaced 6-histidine tag

[6] = target: T5, Human Galectin-3 protein (Acro …); assay: SPR (Biacore T200), antibody captured, Galectin-3 as analyte
[7] = target: T5, Human Galectin-3 protein (Acro …); assay: blocking ELISA (Gal3 coated; antibody 3 µg/mL + INSR)
[8] = target: T4, Human GAL3 protein (TrueBinding, …); assay: blocking ELISA (GAL3 coated; antibody + biotinylated ITGb3)
[9] = target: T3, Gal3 Peptide 6 (GAYPGQAPPGAYPGAPGAYP); assay: peptide ELISA (peptide coated; antibody hIgG4 [S228P], 5 µg/mL)
[10] = target: T5, Human Galectin-3 protein (Acro …); assay: ELISA, blocking of INSR binding to coated Gal3; remark: listed apart in the source
[11] = target: T3, Gal3 Peptide 6 (GAYPGQAPPGAYPGAPGAYP); assay: peptide ELISA: Gal3 peptide coated on the plate, antibody (hIgG4 S228P) at 5 µg/mL, anti-human IgG-HRP, A450 (Example 18)
[12] = target: T1, Gal3 Peptide 7 (AYPGAPGAYPGAPAPGVYPG); assay: as above
[13] = target: T2, Gal3 Peptide 1 (ADNFSLHDALSGSGNPNPQG); assay: as above
[14] = target: T1, Gal3 Peptide 7 (AYPGAPGAYPGAPAPGVYPG); assay: peptide ELISA (peptide coated)
[15] = target: T2, Gal3 Peptide 1 (ADNFSLHDALSGSGNPNPQG); assay: peptide ELISA (peptide coated)
[16] = target: T4, Human GAL3 protein (TrueBinding, …); assay: blocking ELISA (GAL3 coated; antibody + biotinylated ITGb1)
[17] = target: T4, Human GAL3 protein (TrueBinding, …); assay: cell-based or functional assay
[18] = target: T5, Human Galectin-3 protein (Acro …); assay: SPR (Biacore T200; antibody captured via anti-Fc, Galectin-3 analyte, 1:1 fit)

| Binder | percent blockade of GAL3-ITGa3 interaction [1] [%] | binding result [2] | binding result [3] | percent blockade of GAL3-ITGaV interaction [4] [%] | Gal3-INSR Blocking @ 3 µg/mL [5] [%] | Kd [6] [nM] | Gal3-INSR binding remaining, % of unblocked sample [7] [%] | percent blockade of GAL3-ITGb3 interaction [8] [%] | binding result [9] | IC50 (read off the curve) [10] [µg/mL] | binding result [11] | binding result [12] | binding result [13] | binding result [14] | binding result [15] | percent blockade of GAL3-ITGb1 interaction [16] [%] | inhibition of Jurkat T cell adhesion [17] [%] | Kd [18] [nM] | reduction of Gal3-INSR binding (%) [7] [%] |
| --- | --- | --- | --- | --- | --- | --- | --- | --- | --- | --- | --- | --- | --- | --- | --- | --- | --- | --- | --- |
| B1 | > 90 | binds | binds | > 90 | 100 | < 1 | < 5 | > 90 | – | – | – | – | – | – | – | – | – | – | – |
| B2 | > 90 | binds | binds | > 90 | 100 | 3.95 | < 5 | > 90 | binds | ~0.5 | – | – | – | – | – | – | – | – | – |
| B3 | > 90 | – | – | > 90 | 100 | 4.26 | < 5 | > 90 | – | – | binds | binds | binds | – | – | – | – | – | – |
| B4 | – | – | – | – | 100 | 4.86 | < 5 | – | – | ~0.5 | – | – | – | binds | binds | – | – | – | – |
| B5 | > 90 | – | – | > 90 | 100 | 16.5 | – | > 90 | – | ~0.7 | – | – | – | – | – | > 90 | – | – | – |
| B6 | > 90 | – | – | > 90 | 100 | 6.09 | – | > 90 | – | ~0.8 | – | – | – | – | – | > 90 | – | – | – |
| B7 | > 90 | – | – | > 90 | 100 | 27.8 | < 5 | > 90 | – | – | – | – | – | – | – | – | > 90 | – | – |
| B8 | – | – | – | – | 100 | 11.3 | – | – | – | – | – | – | – | – | – | – | – | 27.8 | – |
| B9 | < 35 | – | – | < 30 | 11 | 2.53 | – | < 10 | – | – | – | – | – | – | – | – | – | 18.4 | ≤ 30 |
